Test results taken from patent US20260031189A1 (BIONTECH US, published 2026).

Biological target: S353-369
Assay: FP assay; pair as listed in Table 23

B1: HLA-DRA*01:01/DRB4*01:03 soluble heterodimer (receptor)
MHC II alpha: not shown
MHC II beta: not shown
notes: also called HLA-DRB4*01:03/DRA*01:01
binding result: binds
